From paper PMC9599461, “Stereoselectivity in the Membrane Transport of Phenylethylamine Derivatives by Human Monoamine Transporters and Organic Cation Transporters 1, 2, and 3” (Biomolecules, 2022)
Several values for one entry are separate records, joined by “and”; a condition that tells them apart may be missing. Identical values can stand only once.

Assays:
[1] = system: OCT2 A270S variant; experiment: in vitro; conditions: human, Stereoselectivity OCT2_A270S, 100 μM racemic substance, two minutes; uptake ratio of enantiomers, given as for (R);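 note: uptake into HEK293 cells stably overexpressing human OCT2 variants, intracellular enantiomers quantified by chiral HPLC-MS/MS and normalized to total protein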
[2] = molecular target: T1, OCT3 (Homo sapiens, UniProt O75751); experiment: Stereoselective uptake into OCT3-overexpressing HEK293 cells; conditions: OCT3; ratio between enantiomers, given as for (R) or for 1;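 note: intracellular accumulation in HEK293 cells measured by chiral HPLC-MS/MS after a 2 min substrate exposure at 37 °C, uptake normalized to total protein (bicinchoninic acid assay)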
T1 sequence (O75751 1-556): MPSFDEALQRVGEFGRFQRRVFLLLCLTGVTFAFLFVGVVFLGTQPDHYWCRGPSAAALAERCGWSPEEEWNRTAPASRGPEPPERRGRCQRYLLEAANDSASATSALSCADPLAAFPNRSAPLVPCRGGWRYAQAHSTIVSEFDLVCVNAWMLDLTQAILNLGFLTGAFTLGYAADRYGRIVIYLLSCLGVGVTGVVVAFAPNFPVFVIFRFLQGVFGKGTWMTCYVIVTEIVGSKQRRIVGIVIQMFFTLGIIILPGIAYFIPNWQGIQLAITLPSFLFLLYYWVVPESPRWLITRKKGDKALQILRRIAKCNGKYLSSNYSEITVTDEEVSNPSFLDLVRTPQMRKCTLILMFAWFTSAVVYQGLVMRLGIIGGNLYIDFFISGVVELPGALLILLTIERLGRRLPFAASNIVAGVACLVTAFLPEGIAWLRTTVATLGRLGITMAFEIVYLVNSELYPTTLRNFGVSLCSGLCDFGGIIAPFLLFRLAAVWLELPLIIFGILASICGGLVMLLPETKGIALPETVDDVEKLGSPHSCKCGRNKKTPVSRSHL

[3] = molecular target: T2, OCT2 (wild-type) (Homo sapiens, UniProt O15244); experiment: Stereoselective uptake into OCT2 (wild-type)-overexpressing HEK293 cells; conditions: human, 100 μM racemic substance, two minutes, uptake ratio of enantiomers, given as for (R)
T2 sequence (O15244 1-555 S270A): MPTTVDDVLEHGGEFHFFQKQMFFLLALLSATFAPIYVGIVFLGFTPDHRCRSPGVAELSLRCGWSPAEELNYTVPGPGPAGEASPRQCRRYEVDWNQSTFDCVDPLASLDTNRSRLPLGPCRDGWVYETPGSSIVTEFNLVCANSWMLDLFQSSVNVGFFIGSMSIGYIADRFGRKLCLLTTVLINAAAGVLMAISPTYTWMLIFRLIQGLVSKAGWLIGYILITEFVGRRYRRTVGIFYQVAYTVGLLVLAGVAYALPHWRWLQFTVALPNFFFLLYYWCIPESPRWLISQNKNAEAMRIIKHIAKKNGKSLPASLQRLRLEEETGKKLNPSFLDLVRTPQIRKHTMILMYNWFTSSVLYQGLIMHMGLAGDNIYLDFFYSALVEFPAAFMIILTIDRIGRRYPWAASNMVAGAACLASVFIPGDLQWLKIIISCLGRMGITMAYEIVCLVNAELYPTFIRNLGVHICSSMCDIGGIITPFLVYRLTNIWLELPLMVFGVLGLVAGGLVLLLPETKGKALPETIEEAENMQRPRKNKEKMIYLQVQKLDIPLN

[4] = system: Alpha-2 adrenoreceptor; set-up: method as in PMID 2833972; conditions: cited from earlier work
[5] = system: Alpha-1 adrenoreceptor; conditions: cited from earlier work
[6] = molecular target: SERT (Homo sapiens, UniProt P31645); experiment: Stereoselective uptake into SERT-overexpressing HEK293 cells; conditions: SERT; ratio between enantiomers, given as for (R) or for 1;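 note: uptake into HEK293 cells stably expressing human SERT over 2 min, enantiomers measured in cell lysate by chiral HPLC-MS/MS, normalized to total protein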
[7] = system: OCT2 A270S variant; experiment: Stereoselective uptake into OCT2 A270S variant-overexpressing HEK293 cells; conditions: human, HEK293 cells stably overexpressing human OCT2 A270S variant;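 note: uptake into HEK293 cells stably overexpressing human OCT2 variants, intracellular enantiomers quantified by chiral HPLC-MS/MS and normalized to total protein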
[8] = system: NCC(O)c1cccc(O)c1; experiment: cells, lysate or membranes; conditions: other: HEK293 cells overexpressing human SERT; racemic substrate, two minutes; net uptake minus empty vector control; 37.0 °C
[9] = system: NC[C@H](O)c1ccc(O)cc1; experiment: cells, lysate or membranes; conditions: other: HEK293 cells overexpressing human SERT; racemic substrate, two minutes; net uptake minus empty vector control; 37.0 °C
[10] = system: [H][C@](O)(CNC)c1ccc(O)cc1; experiment: cells, lysate or membranes; conditions: other: HEK293 cells overexpressing human SERT; racemic substrate, two minutes; net uptake minus empty vector control; 37.0 °C
[11] = system: NC[C@@H](O)c1ccc(O)cc1; experiment: cells, lysate or membranes; conditions: other: HEK293 cells overexpressing human SERT; racemic substrate, two minutes; net uptake minus empty vector control; 37.0 °C
[12] = system: CNCC(O)c1ccc(O)c(OC)c1; experiment: cells, lysate or membranes; conditions: other: HEK293 cells overexpressing human SERT; racemic substrate, two minutes; net uptake minus empty vector control; 37.0 °C
[13] = system: COc1cc(C(O)CN)ccc1O; experiment: cells, lysate or membranes; conditions: other: HEK293 cells overexpressing human SERT; racemic substrate, two minutes; net uptake minus empty vector control; 37.0 °C
[14] = system: CNC[C@@H](O)c1ccc(O)cc1; experiment: cells, lysate or membranes; conditions: other: HEK293 cells overexpressing human SERT; racemic substrate, two minutes; net uptake minus empty vector control; 37.0 °C
[15] = substrate: CNC[C@H](O)c1cccc(O)c1; experiment: cells, lysate or membranes; conditions: racemic substrate, two minutes, net uptake minus empty vector control, 37.0 °C
[16] = substrate: NC[C@@H](O)c1ccc(O)cc1; experiment: cells, lysate or membranes; conditions: racemic substrate, two minutes, net uptake minus empty vector control, 37.0 °C
[17] = substrate: CNC[C@@H](O)c1ccc(O)cc1; experiment: cells, lysate or membranes; conditions: racemic substrate, two minutes, net uptake minus empty vector control, 37.0 °C
[18] = substrate: CNC[C@@H](O)c1cccc(O)c1; experiment: cells, lysate or membranes; conditions: racemic substrate, two minutes, net uptake minus empty vector control, 37.0 °C
[19] = substrate: CNCC(O)c1ccc(O)c(OC)c1; experiment: cells, lysate or membranes; conditions: racemic substrate, two minutes, net uptake minus empty vector control, 37.0 °C
[20] = substrate: NC[C@H](O)c1ccc(O)cc1; experiment: cells, lysate or membranes; conditions: racemic substrate, two minutes, net uptake minus empty vector control, 37.0 °C
[21] = substrate: [H][C@](O)(CNC)c1ccc(O)cc1; experiment: cells, lysate or membranes; conditions: racemic substrate, two minutes, net uptake minus empty vector control, 37.0 °C
[22] = substrate: COc1cc(C(O)CN)ccc1O; experiment: cells, lysate or membranes; conditions: racemic substrate, two minutes, net uptake minus empty vector control, 37.0 °C
[23] = substrate: NCC(O)c1cccc(O)c1; experiment: cells, lysate or membranes; conditions: other: HEK293 cells overexpressing human OCT3; racemic substrate, two minutes; net uptake minus empty vector control; 37.0 °C
[24] = other: HEK293 cells overexpressing human OCT1
[25] = other: HEK293 cells overexpressing human OCT3

Question: With `NCC(O)c1cccc(O)c1` (stereo not shown) [Norphenylephrine] as the molecule, how does the selectivity ratio at 2 min, 100 μM [1] read?
Answer: 1.46

Question: And the “Stereoselectivity Vmax” value [2]?
Answer: 3.9 fold

Question: And the selectivity ratio at 2 min, 100 μM ([3]; Stereoselectivity OCT2_WT)?
Answer: 1.54

Question: What about the “Enantiomeric Activity Ratio (R/S) in Receptor Binding Alpha-2” value [4] of the same molecule?
Answer: 3

Question: And the “Enantiomeric Activity Ratio (R/S) in Receptor Binding Alpha-1” value [5]?
Answer: 8

Question: With `NCC(O)c1ccc(O)cc1` (stereo not shown) [Octopamine] as the molecule, how does the “Stereoselectivity Vmax” value [6] read?
Answer: 2.4 fold

Question: What about the selectivity ratio at 2 min, 100 μM ([3]; HEK293 cells stably overexpressing human wild-type OCT2, Stereoselectivity OCT2_WT) of the same molecule?
Answer: 1.74

Question: And the selectivity ratio at 2 min, 100 μM [7]?
Answer: 1.69

Question: And the “Enantiomeric Activity Ratio (R/S) in Receptor Binding Alpha-2” value [4]?
Answer: 3

Question: What about the “Enantiomeric Activity Ratio (R/S) in Receptor Binding Alpha-1” value [5] of the same molecule?
Answer: 5

Question: Which selectivity ratio at 2 min, 100 μM [1] does the source give for `CNC[C@H](O)c1cccc(O)c1` [Phenylephrine] here?
Answer: 1.16

Question: And the “Stereoselectivity Vmax” value [2]?
Answer: 3.3 fold

Question: What about the selectivity ratio at 2 min, 100 μM ([3]; Stereoselectivity OCT2_WT) of the same molecule?
Answer: 1.3

Question: And the “Enantiomeric Activity Ratio (R/S) in Receptor Binding Alpha-2” value [4]?
Answer: 45

Question: And the “Enantiomeric Activity Ratio (R/S) in Receptor Binding Alpha-1” value [5]?
Answer: 420

Question: Which results are given for SERT (Homo sapiens)?
Answer: Km [8]: 333 µM and 277 µM; Vmax [8]: 400 pmol × mg Protein^−1 × min^−1 and 508 pmol × mg Protein^−1 × min^−1; Km [9]: 59.6 µM; Vmax [9]: 247 pmol × mg Protein^−1 × min^−1; Km [10]: 528 µM; Vmax [10]: 363 pmol × mg Protein^−1 × min^−1; Km [11]: 42.9 µM; Vmax [11]: 104 pmol × mg Protein^−1 × min^−1; Km [12]: 151 µM and 165 µM; Vmax [12]: 87.4 pmol × mg Protein^−1 × min^−1 and 94.5 pmol × mg Protein^−1 × min^−1; Km [13]: 42.0 µM and 38.7 µM; Vmax [13]: 93.6 pmol × mg Protein^−1 × min^−1 and 157 pmol × mg Protein^−1 × min^−1; Km [14]: 804 µM; Vmax [14]: 491 pmol × mg Protein^−1 × min^−1

B1: OCT1 (Homo sapiens) (protein)
chain: MPTVDDILEQVGESGWFQKQAFLILCLLSAAFAPICVGIVFLGFTPDHHCQSPGVAELSQRCGWSPAEELNYTVPGLGPAGEAFLGQCRRYEVDWNQSALSCVDPLASLATNRSHLPLGPCQDGWVYDTPGSSIVTEFNLVCADSWKLDLFQSCLNAGFLFGSLGVGYFADRFGRKLCLLGTVLVNAVSGVLMAFSPNYMSMLLFRLLQGLVSKGNWMAGYTLITEFVGSGSRRTVAIMYQMAFTVGLVALTGLAYALPHWRWLQLAVSLPTFLFLLYYWCVPESPRWLLSQKRNTEAIKIMDHIAQKNGKLPPADLKMLSLEEDVTEKLSPSFADLFRTPRLRKRTFILMYLWFTDSVLYQGLILHMGATSGNLYLDFLYSALVEIPGAFIALITIDRVGRIYPMAMSNLLAGAACLVMIFISPDLHWLNIIIMCVGRMGITIAIQMICLVNAELYPTFVRNLGVMVCSSLCDIGGIITPFIVFRLREVWQALPLILFAVLGLLAAGVTLLLPETKGVALPETMKDAENLGRKAKPKENTIYLKVQTSEPSGT
Question: What does the source list for B1?
Answer: Km [15, 24]: 175 µM; Vmax [15, 24]: 1710 pmol × mg Protein^−1 × min^−1; Km [16, 24]: 281 µM; Vmax [16, 24]: 1211 pmol × mg Protein^−1 × min^−1; Km [17, 24]: 111 µM; Vmax [17, 24]: 1348 pmol × mg Protein^−1 × min^−1; Km [18, 24]: 178 µM; Vmax [18, 24]: 1578 pmol × mg Protein^−1 × min^−1; Km [19, 24]: 134 µM and 146 µM; Km [20, 24]: 291 µM; Vmax [20, 24]: 1318 pmol × mg Protein^−1 × min^−1; Km [21, 24]: 86.7 µM; Vmax [21, 24]: 1817 pmol × mg Protein^−1 × min^−1; Km [22, 24]: 806 µM and 1279 µM; Vmax [22, 24]: 2137 pmol × mg Protein^−1 × min^−1 and 3145 pmol × mg Protein^−1 × min^−1

B2: OCT3 (Homo sapiens) (protein)
chain: T1 sequence (O75751 1-556)
Question: Which Km [15, 25] does the source give for B2 here?
Answer: 244 µM

Question: What about the Vmax [15, 25] of the same molecule?
Answer: 2885 pmol × mg Protein^−1 × min^−1

Question: What about the Km [23] of the same molecule?
Answer: 582 µM and 498 µM

Question: And the Km [16, 25]?
Answer: 20.1 µM

Question: What about the Vmax [16, 25] of the same molecule?
Answer: 1072 pmol × mg Protein^−1 × min^−1

Question: What about the Km [17, 25] of the same molecule?
Answer: 75.3 µM

Question: What about the Vmax [17, 25] of the same molecule?
Answer: 2090 pmol × mg Protein^−1 × min^−1

Question: What about the Km [18, 25] of the same molecule?
Answer: 205 µM

Question: What about the Vmax [18, 25] of the same molecule?
Answer: 866 pmol × mg Protein^−1 × min^−1

Question: What about the Km [19, 25] of the same molecule?
Answer: 29.0 µM and 24.4 µM

Question: What about the Vmax [19, 25] of the same molecule?
Answer: 752 pmol × mg Protein^−1 × min^−1 and 635 pmol × mg Protein^−1 × min^−1

Question: And the Km [20, 25]?
Answer: 25.1 µM

Question: What about the Vmax [20, 25] of the same molecule?
Answer: 972 pmol × mg Protein^−1 × min^−1

Question: And the Km [21, 25]?
Answer: 83.5 µM

Question: What about the Vmax [21, 25] of the same molecule?
Answer: 2193 pmol × mg Protein^−1 × min^−1

Question: What about the Km [22, 25] of the same molecule?
Answer: 75.9 µM and 62.4 µM

Question: What about the Vmax [22, 25] of the same molecule?
Answer: 1473 pmol × mg Protein^−1 × min^−1 and 1352 pmol × mg Protein^−1 × min^−1
